Reference: paper PMC6193675

Biological target: VRC01
Assay: FACS; competition with YU2 gp120dsm for 3 nM VRC01

Bal gp120
Ki: 5 nM
